# Test results published in the DeepSol protein solubility set.
# Assay: soluble on expression in E. coli; label from the status in PepcDB or PDB records
row,Sequence,soluble on expression in E. coli
1,MGKYQPSFQTKKGWTEVICGPMFSGKTEKLLHKIKRWKIAKISVVIFKPIIDTRQTNIVKSRNGEYDQAITINSPFEIYDHLVDKNYQIVAIDEAQFFSNEIIEVVTTLNEIGTNVIISGLDTDFRAEPFGCIPQLLAIADVVNKLDAICNVCGSLAQRTQRLVNKNTNDNLVLIGDAEAYEARCKLHHSFLTKKHVTVKTKNFKEQVQGKTQLEHHHHHH,not soluble
2,MGSDKIHHHHHHMKKAVLIVNPSSGGEKAKEFETLAEEKLKQLFDEVVVKQTEKGGDAEQFAREAAESHFDSVFVMGGDGTVNEGISGLAEQAYRPKFGFFPLGTVNDLARALNLPMDPEEAIQQLDLEKTSALDVGKINDDYFMNVVAIGTIPESINDVDVEQKTKLGKLAYFISGAKHLANAQTYPFHLSLDQKEQTIESSTVLVGLTNSIGGFETLLPEAQVDDGKLHLVYLKDQSLWDAVKAVPDLLKGVDQSTDNLVYLTFKEGTISLENQEELTTNVDGDEGAALPITLKILPKHLTVYCGEEQTK,not soluble
3,MSLSHVLQELRDVRQASHKVSQGARVLFPCELLSALSLLQTSAQASYQAVVETGLGLARGLREQILKAAAILGVADPSGIYIQPEDEHRLDVVGRLFEAMLRDSCLYPQSRVWIGHLLVPVAKVALRDSCLLETDHHPVWRLLMLLVDACNGNKGEDPAEHALLMQVRETVETVVREFDDDVTLFQTQQAALSMHYEQYVAKTRNTQRHVAECEITEERRQQAQRVADDALKQCLLGHVLPQQIEHFLRRIWCAHVQQVALLNDDNGQALKAVLALGDALLVQWRQASEGSIPERPWLYEERAGILEAFCIAGMTLVEAEAGFANLQHVLAAATPQSSVIATSTQTQSFDTFISVPDTSATSELNTASPSYFRELPLGTWLDFIGIDGRIQSGQLSWVSPISGRLMFVNHRGRRLCVTAPEELSTLMCLGRLRLHRAGDSLMSEGHHHHHH,not soluble
4,MLCIDSSRDLTYGVVMTFKVMEFQKGRLQNLYWKRDVCASCKGNQNFVCLKKQVCAIRTPSCKGRGGSVGCSLGIQLAFSGTDKHLAVLNSWYEVDNLKQYSLYGLYSNLKSSLTNQLNNFF,soluble
5,MSADHDHDHDHDHDHKPAPMVEEVSDFEILEMAVRELAIEKGLFSAEDHRVWKDYVHTLGPLPAARLVAKAWLDPEYKKLCIEDGVEASKAVGVNWVTSPPTQFGTPSDYCNLRVLADSPTLKHVVVCTLCSCYPRPILGQSPEWYRSPNYRRRLVRWPRQVLAEFGLQLPSEVQIRVADSNQKTRYIVMPVRPEGTDGWTEDQLAEIVTRDCLIGVAVPKPGITVNAKRPVLKANRPVHHDH,soluble
6,MSAKGKHVVVIGGGDTGADCITTSVRHGAKSITQFDINREKSNERPDNNPWPLFPIVHTVEDGHKEAAAVYGKDPRAYQVMTTKFVGDAEGHVKEIHTISVETTVHPDGSKTRVEIPGTEKVWPADLVFLAVGFTGPEEQLVRELELETDTRSNIKAEYGKYETSLEGVFAAGDNRRGQSLVVWAIHEGREAARECDKYLMGLEHHHHHH,not soluble
7,MWQAIAKQISEVTQQPFSISERESVNGGEINDCYMISNGSQRYFVKINEKAELPIFETEIESLTQLDKSDHIFVPSPIHIGTTKEHSFLVLNYLPTKSMDKDAFYELGVSLANHHLWGDQLEYGFDCDNYLGNVLQVNTWHRRWDCFFAEQRIGWQLQLLKEKGMVLGDIDTLVKNSKLILHNHQPKPALLHGDLWHGNIALSVKGPISYDPASYWGDAECDLAMVELFGGIQDSFFEGYESISSISEGFETRQHLYSLYHVLNHCNMFGGEYMFHAQQLIDKLNLNELEHHHHHH,not soluble
8,MAASWRLGCDPRLLRYLVGFPGRRSVGLVKGALGWSVSRGANWRWFHSTQWLRGDPIKILMPSLSPTMEEGNIVKWLKKEGEAVSAGDALCEIETDKAVVTLDASDDGILAKIVVEEGSKNIRLGSLIGLIVEEGEDWKHVEIPKDVGPPPPVSKPSEPRPSPEPQISIPVKKEHIPGTLRFRLSPAARNILEKHSLDASQGTATGPRGIFTKEDALKLVQLKQTGKITESRPTPAPTATPTAPSPLQATAGPSYPRPVIPPVSTPGQPNAVGTFTEIPASNIRRVIAKRLTESKSTVPHAYATADCDLGAVLKVRQDLVKDDIKVSVNDFIIKAAAVTLKQMPDVNVSWDGEGPKQLPFIDISVAVATDKGLLTPIIKDAAAKGIQEIADSVKALSKKARDGKLLPEEYQGGSFSISNLGMFGIDEFTAVINPPQACILAVGRFRPVLKLTEDEEGNAKLQQRQLITVTMSSDSRVVDDELATRFLKSFKANLENPIRLA,soluble
9,AAMTLASQIATQLLDIKAVYLKPEDPFTWASGIKSPIYTDNRVTLSYPKTRDLIENGFVETIKAHFPEVEVIAGTATAGIPHGAIIADKMTLPFAYIRSKPKDHGAGNQIEGRVLKGQKMVIIEDLISTGGSVLDAAAAASREGADVLGVVAIFTYELPKASQNFKEAGIKLITLSNYTELIAVAKLQGYITNDGLHLLKKFKEDQVNWQQ,soluble
10,MSLHDYCLPCPTSLSGIAEVNPMSKPLVRWPINPLRTAVIVVDMQKVFCEPTGALYVKSTADIVQPIQKLLQAARAAQVMVIYLRHIVRGDGSDTGRMRDLYPNVDQILARHDPDVEVIEALAPQSDDVIVDKLFYSGFHNTDLDTVLRARDVDTIIVCGTVTNVCCETTIRDGVHREYKVIALSDANAAMDYPDVGFGAVSAADVQRISLTTIAYEFGEVTTTAEVIRRIESAYPHGREGHHHHHH,soluble
11,KDYDAYLSYTKVDPDQWNQETGEEERFALEILPDMLEKHYGYKLFIPDRDLIPTGTYIEDVARCVDQSKRLIIVMTPNYVVRRGWSIFELETRLRNMLVTGEIKVILIECSELRGIMNYQEVEALKHTIKLLTVIKWHGPKCNKLNSKFWKRLQYEMPF,soluble
12,MRYLELAQLYQKLEKTTMKLIKTRLVADFLKKVPDDHLEFIPYLILGEVFPEWDERELGVGEKLLIKAVAMATGIDAKEIEESVKDTGDLGESIALAVKKKKQKSFFSQPLTIKRVYQTLVKVAETTGEGSQDKKVKYLADLFMDAEPLEAKYLARTILGTMRTGVAEGLLRDAIAMAFHVKVELVERAYMLTSDFGYVAKIAKLEGNEGLAKVQVQLGKPIKPMLAQQAASIRDALLEMGGEAEFEIKYDGARVQVHKDGSKIIVYSRRLENVTRAIPEIVEALKEAIIPEKAIVEGELVAIGENGRPLPFQYVLRRFRRKHNIEEMMEKIPLELNLFDVLYVDGQSLIDTKFIDRRRTLEEIIKQNEKIKVAENLITKKVEEAEAFYKRALEMGHEGLMAKRLDAVYEPGNRGKKWLKIKPTMENLDLVIIGAEWGEGRRAHLFGSFILGAYDPETGEFLEVGKVGSGFTDDDLVEFTKMLKPLIIKEEGKRVWLQPKVVIEVTYQEIQKSPKYRSGFALRFPRFVALRDDKGPEDADTIERIAQLYELQEKMKGKVES,soluble
13,SLALSSPILKEILIEAPSYAPNSFTFDSTNKGFYTSVQDGRVMKYEGPNSGFVDFAYASPYWNKAFCENSTDAEKRPLCGRTYDISYNLQNNQMYIVDCYYHLSVVGSEGGHATQLATSVDGVPFKWLYAVTVDQRTGIVYFTDVSTLYDDRGVQQIMDTSDKTGRLMKYDPSTKETTLLMKELHVPGGAEVSADSSFVLVAEFLSHQIVKYWLEGPKKGTAEVLVKIPNPGNIKRNADGHFWVSSSEELDGNMHGRVDPKGIKFDEFGNILEVIPLPPPFAGEHFEQIQEHDGLLYIGTLFHGSVGILVYDKKGNSFVSSH,soluble
14,MLPKSSLKETQQALANAIRLGNADPLNGYAASRLAVYTRLVRNNAFGFIDRCFVEAPLHIEPEYWKNAKENFVQNGNAHSPYFQDIAGEFLLFCQEKEIFDTNILALMDFENTQLLAEVSLAKVPEKFEWNRHSVMQLSGAAYLKSYDVDFLSSDFKQFDDTPIQAIIWRDSDFRIQQQILSELDYWLLSYLQEQPNSLENVLSALNTMVEDSTSIIPLLEQVWMKWVTSEVIYPEQR,not soluble
15,MSRVYTLLTGLLLSLIALSLQAAQLTASVDRTRLNAGETVELTLETDDVTQFGKPDMSSLEASFEVRDTRQLNSLKTLDGSSQATTRWIVTLLPRETGSVIIPSLQLGELKSQPLTLQVMQSETKEPTSHLASIFIEASLDQDSVYVQAQAVLTLRVYHSVSLFDDSSLN,not soluble
